# B1: TPR t1 (parent)
# chain: GACCAAUCUGCCCUCAGAGCUCGAGAACAUCUUCGGAUGCAGAGGAGGCAGGCUUCGGUGGCGCGAUAGCGCCAACGUCCUCAACCUCCAAUGCAUCCCACCACAUGAUGAUGCCUGAAGAGCCUUGGUUUUUUG
# Variants of: B1
# Experiment: polymerase ribozyme fitness, log enrichment relative to wild type (log ratio); higher = more active; in vitro selection for triplet polymerase activity
# Summary of the method: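 A single round of triplicate in vitro selection, including frozen incubation at −7 °C, was applied to PCR-built, transcribed mutant libraries of each subunit of a heterodimeric triplet polymerase ribozyme. Illumina sequencing of input and output libraries retained genotypes with ≥10 input reads and ≥1 read per output. Fitness is the base-2 logarithm of genotype enrichment divided by wild-type enrichment, from inverse-variance-weighted replicate averages.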
row,Variant,polymerase ribozyme fitness (log ratio)
1,GACCAAUCUGCCCUCAGAGCUCGAGACCAUCUUCGGAUGCAGAGGAAGCAGGCGUCUGUGGCGCGAUAGCGCCAACGUCCUCAACCUCCAAUGCAUCCCACCACAUGAUGAUGCCUGAAGAGCCUUGGUUUUUUG [A27C G47A U54G G57U],-1.6
2,GACCAAUCUGCCCUCAGAGCUCGAGACCAUCUUCGGAUGCAGAGGAGGCAGGCUUCGGUGGCGCGAUAGCGCCAACGUCCUCAACCUCCAAUGCAUCCCACCACAUGAUGAUGCCUGAAGAGCAUUGGUUUUUUG [A27C C124A],-0.901
3,GACCAAUCUGCCCUCAGAGCUCGAGAGCAUCUUCGGAUGCUGAGGAGGCAGGCUUCGGUGGCGCGAUAGCGCCAACGUCCUCAACCUCCAAUGCAUCCCACCACAUGAUGAUGCCUGAAGAGCCUUGGUUUUUUG [A27G A41U],-2.67
4,GACCAAUCUGCCCUCAGAGCUCGAGACCAUCUUCGGAUGCAGAGGAGGCAGGCUUCUGUGGCGCGAUAUCGCCAACGUCCUCAACCUCCAAUGCAUCCCACCACAUGAUGAUGCCUGAAGAGCGUUGGUUUUUUG [A27C G57U G69U C124G],0.217
5,GACCAAUCUGCCCUCAGAGCUCGAGAGCAUCUUCGGAUGCAGAGGAGGCAGGCUUCGGUGGCGUGAUAGCGCCAACGUCCUCAACCUCCAAUGCAUCCCACCACAUGAUGAUGCCUGAAGAGCCUUGGUUUUUUG [A27G C64U],-2.01
6,GACCAAUCUGCCCUCAGAGCUCGAGACCAUCUUCGGAUGCAGAGGAGGCAGGCUUCGGUGGCGCGAUAGCGACAACGUCCUCAACCUCCAAUGCAUCCCACCACAUGAUGAUGCCUGAAGAGCCUUGGUUUUUUG [A27C C72A],-3.22
7,GACCAAUCUGCCCUCAGAGCUCGAGAGCAUCUUCGGAUGCAGAGGAGGCAGGCUUCGGUGGCGCGAUAGCGCCAACGUCCUCGACUUCCAAUGCAUCCCACCACAUGAUGAUGCCUGAAGAGCCUUGGUUUUUUG [A27G A83G C86U],-2.33
8,GACCAAUCUGCCCUCAGAGCUCGAGACCAUCUUCGGAUGCAGAGGAGGCAGGCUUAGGUGGCGCGAUAGCGCCAAGGUCCUCAACCUCCAAUGCAUCCCACCACAUGAUGAUGCCUGAAGAGCCUUGGUUUUUUG [A27C C56A C76G],-3.81
9,GACCAAUCUGCCCUCAGAGCUCGAGAGCAUCUUCGGAUGCAGAGGAGGCAGGCUUCGGUGGCGUGAUAGCGCUAACGUCCUCAACCUCCAAUGCAUCCCACCACAUGAUGAUGCCUGAAGAGCCUUGGUUUUUUG [A27G C64U C73U],-2.48
10,GACCAAUCUGCCCUCAGAGCUCGAGACCAUCUUCGGAUGCAGAGGAGGCAGGCUUCGGUGCCGCGAUAGCGCCAACGUCCUCAACCUCCAAUGCAUCCCACCACAUGAUGAUGCCUGAAGAGCCUUGGUUUUUUG [A27C G61C],-5.63
11,GACCAAUCUGCCCUCAGAGCUCGAGACCAUCUUCGGAUGCAGAGGAGGCAGGCUUCGGUAGCGCGAUAGCGCCAACGUCCUCAACCUCCAAUGCAUCCCACCACAUGAUAAUGCCUGAAGAGCCUUGGUUUUUUG [A27C G60A G110A],-6.05
12,GACCAAUCUGCCCUCAGAGCUCGAGACCAUCUUCGGAUGCAGAGGAGGCAGGCUUCGGUGGCGCGAUAGCGACAACGUUCUCAACCUCCAAUGCAUCCCACCACAUGAUGAUUCCUGAAGAGCCUUGGUUUUUUG [A27C C72A C79U G113U],-6.86
13,GACCAAUCUGCCCUCAGAGCUCGAGAGCAUCUUCGGUUGCAGAGGAGGCAGGCUUCGGUGGCGCGAUAGCGCCAACGUCCUCAACCUCCAAUGCAUCCCACCACAUGAUGAUGCCUGAAGGGCCUUGGUUUUUUG [A27G A37U A121G],0.646
14,GACCAAUCUGCCCUCAGAGCUCGAGACCAUCUUCGGAUGCAGAGGAUGCAGGCUUCGGUGGCGCGAUAGCGCUAACUUCCUCAACGUCCAAUGCAUCCCACCACAUGAUGAUGCCUGAAGAGACUAGGUUUUUUG [A27C G47U C73U G77U C86G C123A U126A],-4.61
15,GACCAAUCUGCCCUCAGAGCUCGAGACCAUCUUCGGAUGCAGAGGAGGCAGGCUUCGGUGGCGCGAUAGCGCCAAAGUCCUCAACCUCCAAUGCAUCCCACCACAUGAUGAUGCCUGAAGAGCCUUGGUUUUUUG [A27C C76A],-5.92
16,GACCAAUCUGCCCUCAGAGCUCGAGAGAAUCUUCGGAUGCAGAGGAGGCAGUCUUCGGUGGCGCGAUAGCGCCAACGUCCUCAACCUCCAAUGCAUCCCACCACAUGAUGAUGCCUGAAGAGCCUUGGUUUUUUG [A27G C28A G52U],-5.13
17,GACCAAUCUGCCCUCAGAGCUCGAGAGCAUCUUCGGAUGCAGAGGGGGCAGGCUUCGGUGGCGCGAUAGCGUCAACGUCCUCAACCUCCAAUGCAUCCCACCACAUGAUGAUGCCUGAAGAGCCUUGGUUUUUUG [A27G A46G C72U],-3.52
18,GACCAAUCUGCCCUCAGAGCUCGAGACCAUCUUCGGAUGCAGAGGAGGCAGGCUUCGGUGGCGCGAUAGCGUCAACGUCCUCAACCUCCAAUGCAUCCCACCACAUGAUGAUGCCUGAAGAGCAUUGGUUUUUUG [A27C C72U C124A],-1.07
19,GACCAAUCUGCCCUCAGAGCUCGAGACCAUCUUCGGAUGCAGAGGAGGCAGGCCUCGGUGGCGCGAUAGCGCCAACGUCCUCAACCUCCAAUGCAUCCCACCACAUGAUGAUGCCUGAAGAGCCUUGGUUUUUUG [A27C U54C],-2.56
20,GACCAAUCUGCCCUCAGAGCUCGAGAGCAUCUUCGGAUGCAGAGGAGGCAGGCUUUGGUGGCGCGAUAGCGCCAACGUCCUCAACCUCCAAUGCAACCCACCACAUGAGGAUGCGUGAAGAGCUUUGGUUUUUUG [A27G C56U U96A U109G C115G C124U],-7.02
21,GACCAAUCUGCCCUCAGAGCUCGAGACCAUCUUCGGAUGCAGAGGAGGCAGGCAUCGGUGGCGAGAUAGCGCCAACGUCCUCAACCUCCAAUGCAUCCCACCACAUGAUGAUACCUGAAGAGCCUUGGUUUUUUG [A27C U54A C64A G113A],-5.44

row,Variant,polymerase ribozyme fitness (log ratio)
1,GACCAAUCUGCCCUCAGAGCUCGAGACCAUCUUCGGAUGCAGAGGAGGCAGGCUUCGGUGGCGCGAUAGCGCCAACGUCCUCAAUCUCCAAUGCAUCCCACCACAUGAUGAUGCCUGAAGAGUCUUGGUUUUUUG [A27C C85U C123U],-3.3
2,GACCAAUCUGCCCUCAGAGCUCGAGACCAUCUUCGGAUGCAGAGGAGGCAGGCUUCGGUGGCGCGAUAGCGGCAACGUCCUCAACCUCCAAUGCAUCCCACCACAUGAUGACGCCUGAACAGCCUCGGUUAUUUG [A27C C72G U112C G120C U126C U131A],-4.66
3,GACCAAUCUGCCCUCAGAGCUCGAGAGCAUCUUCGGAUGUAGAGGAGGGAGGCUUCGGUGGCGCGAUAGCGCUAACGUCCUCAACCUCCAAUGCAUCCCACCACAUGAUGAUGCCUGAAGAGCCUUGGUUUUUUG [A27G C40U C49G C73U],-2.98
4,GACCAAUCUGCCCUCAGAGCUCGAGAGCAUCUUCGGAUGCAGAGGAGGUAGGCUUCGGUGGCGCGAUAGCGCCAACGUCCUCAACCUCCAAUGCAUCCCACCACAUGAUGAUGCCUGAAGAGACUUGGUUUUUUG [A27G C49U C123A],-1.76
5,GACCAAUCUGCCCUCAGAGCUCGAGACCAUCUUCGGAUGCAGAGGAGGCAGGCUUCGGUGGCGCGAGAGCGCCAACGUCCUCAACCUCCAAUGCAUCCCACCACAUAAAGAUGCCUGAAGAGGGUUGGUUUUUUG [A27C U67G G107A U109A C123G C124G],-6.73
6,GACCAAUCUGCCCUCAGAGCUCGAGACCAUCUUCGGAUGCAGAGGAGGCAGGCUUCGGUGGCGCGAUAGCGCCAACGACCUCAACCUCCAAUGCAUCCCACCACAUGAUGAUGCCUGAAGAGCCUUGGUUUUUUG [A27C U78A],-3.62
7,GACCAAUCUGCCCUCAGAGCUCGAGAGUAUCUUCGGAUGCAGAGGAGGCAGGCUUUGGUGGCGCGAUAGCGCCAACGUCCACUACCUCCAAUGCAUCCCACCACAUGAUGAUGCCUGAAGCGCCUUGGUUUUUUG [A27G C28U C56U U81A A83U A121C],-3.5
8,GACCAAUCUGCCCUCAGAGCUCGAGAGCAUCUUCGGAUGCUGAGGAGACAGGCUUCGGUGGCGCGAUAGCGCCAACGUCCUCAACCUACAAUGCAUCCCACCACAUGAUGAUGCCUGAAGAGCCUUGGUUUUUUG [A27G A41U G48A C88A],-5.84
9,GACCAAUCUGCCCUCAGAGCUCGAGAGCAUCUUCGGAUGCAGAGGAGGCAGGGUUCGGUGGCGCGAUAGCGCCAACGUCCUCAACCUCCAAUGCAUCCCACCACAUGAUGAUGCCUGAAGAGCCUUGGUUUUUUG [A27G C53G],-1.84
10,GACCAAUCUGCCCUCAGAGCUCGAGAGCAUCUUCGGAUGCAGAGGAGGCAGGCUUAGGUGGCGCGAUAGCGCCCACGUCCUCAACCACCAAUGCAUCCCACCACAUGAUGAAGCCUGAAGAGCCUUGGUUUUUUG [A27G C56A A74C U87A U112A],-0.205
11,GACCAAUCUGCCCUCAGAGCUCGAGAGCAUCUUCGGAUGCAGAGGAGGCAGGCUUCGGUGGCGCGAUAGCGCCAACGUCCUCACCCUCCAAUGCAUCCUACCACAUGAUGAUGCCUGAAGAGCCUUGGUUUUUUG [A27G A84C C99U],-5.83
12,GACCAAUCUGCCCUCAGAGCUCGAGAGCAUCUUCGGAUGCAGAGGAGGCAGGCUUAGGUGGCGCGAUAGCGUCAACGUCCUCAACCUCCAAUGCAUCCCACCACAUGAUGAUGCCUGAAUAGCCUUGGUUUUUUG [A27G C56A C72U G120U],-2.12
13,GACCAAUCUGCCCUCAGAGCUCGAGAGCAUCUUCGGAUGCAGAGGAGGCAGGCUUCGGUGGCGCGAUAGCGUCAACGUCCUCAACCUCCAAUGCAUCCCACCACAUGAUGAUGCCUGAAGAGCCUUGGUUUUUUG [A27G C72U],-1.76
14,GACCAAUCUGCCCUCAGAGCUCGAGACCAUCUUCGGAUGCAGAGGAGGCAGGCUGCCGUGGCGCGAUAGCGCCAACGUCCUCAACCUCCAAUGCAUCCCACCACAUGAUGUUGCCUGAAGAACCUUGGUUUUUUG [A27C U55G G57C A111U G122A],-5.04
15,GACCAAUCUGCCCUCAGAGCUCGAGAGCAUCUUCGGAUGCAGAGGAGGCAGGCUUCGGUGGCGCGAUAGCGCCAACGUCCUCAACCUCCAAUGCAUCCCACCACCUGAUGAUGCCUGAAGAGCCUUGGUUUUUUG [A27G A105C],-3.41
16,GACCAAUCUGCCCUCAGAGCUCGAGACCAUCUUCGGAUGCAGAGGAGGCAGGCUUGGGUGGCGCGAUAGCGCCAACGUCCUCAACCUCCAAUGCAUCCCACCACAUGAUGAUGCCUGAAGAGCCUUGGUUUUUUG [A27C C56G],-3.34
17,GACCAAUCUGCCCUCAGAGCUCGAGAGCAUCUUCGGAUGCAGAGGAGGAAGGCUUCGGUGGCGCGAUAGCGCCAACGUCCUCAACCUCCAAUGCAACCCACCACAUGAUGAUGCCUGAAGAGCCUUGGUUUUUUG [A27G C49A U96A],-3.34
18,GACCAAUCUGCCCUCAGAGCUCGAGAGCAUCUUCGGAUGCAGAGGAGGUAGGCUUCGGUGGCGCGAUAGCGCCAACGUCCUCAACCUCCAAUGCAUCCCACCACAUGAUGAUGCCUGAAGAGCCUUGGUUUUUUG [A27G C49U],-2.19
19,GACCAAUCUGCCCUCAGAGCUCGAGAGCAUCUUCGGAUGCAGAGGAGGGAGGCUUCGGUGGCGCGAUAGCGCCAACGUCCUCAACCUCCAAUGCAUCCCACCACAUGAUGAUGCCUGAAGAGCCUUGGUUUUUUG [A27G C49G],-2.37
20,GACCAAUCUGCCCUCAGAGCUCGAGACCAUCUUCGGAUGCAGAGGAGGCAGGCUUCGGUGGAGCGAUAGCGCCAACGUCCUCAACCUCCAAUGCAUCCCACCACAUGAUGAUGCCUGAAGAGCCUUGGUUUUUUG [A27C C62A],-2.54
21,GACCAAUCUGCCCUCAGAGCUCGAGACCAUCUUCGGAUGCAGAGGAGGCAGGCUUCGGUGGCGCGAUAGCGCCAACGUCCUGAACCUCCAAUGCAUCCCACCACAUGAUUAUGCCUGAAGAGCCUUGGUUUUUUG [A27C C82G G110U],-5.23

# From the RNAGym collection of RNA variant scans (doi:10.1073/pnas.2313332121)
